Source: patent publication US20220127355A1 (INTEGRAL MOLECULAR, published 2022)
Where a chain is given by its changes, count along the chain named.

T1: R158A
T1 construct: Shotgun Mutagenesis mutant; also called Claudin 6 R158A
T1 chain: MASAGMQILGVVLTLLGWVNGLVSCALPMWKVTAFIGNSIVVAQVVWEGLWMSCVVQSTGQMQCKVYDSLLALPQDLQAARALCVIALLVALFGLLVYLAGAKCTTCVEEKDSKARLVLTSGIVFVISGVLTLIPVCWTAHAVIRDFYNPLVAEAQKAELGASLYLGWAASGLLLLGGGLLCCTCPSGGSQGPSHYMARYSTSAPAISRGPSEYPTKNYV

T2: V152A
T2 construct: Shotgun Mutagenesis mutant; also called Claudin 6 V152A
T2 chain: T1 chain with V152A, A158R

T3: E154A
T3 construct: Shotgun Mutagenesis mutant; also called Claudin 6 E154A
T3 chain: T1 chain with E154A, A158R

T4: E48A
T4 construct: Shotgun Mutagenesis mutant; also called Claudin 6 E48A
T4 chain: T1 chain with E48A, A158R

T5: D76A
T5 construct: Shotgun Mutagenesis mutant; also called Claudin 6 D76A
T5 chain: T1 chain with D76A, A158R

T6: T33A
T6 construct: Shotgun Mutagenesis mutant; also called Claudin 6 T33A
T6 chain: T1 chain with T33A, A158R

T7: D146A
T7 construct: Shotgun Mutagenesis mutant; also called Claudin 6 D146A
T7 chain: T1 chain with D146A, A158R

T8: N38A
T8 construct: Shotgun Mutagenesis mutant; also called Claudin 6 N38A
T8 chain: T1 chain with N38A, A158R

T9: Claudin 3 (UniProt O15551 1-220)
T9 construct: also called CLDN3
T9 sequence (looked up): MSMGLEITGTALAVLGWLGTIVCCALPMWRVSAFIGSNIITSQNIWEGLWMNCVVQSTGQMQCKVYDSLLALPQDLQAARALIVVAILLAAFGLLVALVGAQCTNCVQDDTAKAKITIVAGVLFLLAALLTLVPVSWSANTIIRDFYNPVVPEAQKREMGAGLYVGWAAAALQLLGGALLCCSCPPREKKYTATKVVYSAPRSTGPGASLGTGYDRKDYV

B1: IM173 (antibody, V domains shown)
VH: AVTLDESGGGLQTPGGALSLVCKASGFTFSSYSMFWVRRAPGKGLEWVAGIDSGSTTFYGSAVKGRATISRDNGQSTVRLQLNNLRAEDTATYYCAKDAYGYCGWSGCSADSIDAWGHGTEVIVSS
VL: ALTQPSSVSANPGGTVEITCSGGNNYYGWYQQKSPGSAPVTVIYYNDKRPSDIPSRFSGSKSGSTGTLTITGVQADDEAVYFCGGWDSSGGIFGAGTTLTVL
notes: Detected with anti-human IgG Fc secondary
B2: IM171 (antibody, V domains shown)
VH: AVTLDESGGGLQTPGGALSLVCKASGFDFSSYAMNWVRQAPGKGLEWVAGIGSTGSSTGYGPAVKGRATISRDNGQSTLRLQLNNLRAEDTAIYYCAKSVGNGNSWSGYIATSIDAWGHGTEVIVSS
VL: ALTQPSSVSANLGGTVKLTCSGGSSGYGWYQQKSPGSAPVTVIYSNDKRPSDIPSRFSGSLSGSTGTLTITGVQADDEAVYFCGSTDNSYVGIFGAGTTLTVL
notes: Detected with anti-human IgG Fc secondary; also called LM171

Legend:
[1] = target: T1, R158A; experiment: Shotgun Mutagenesis epitope mapping; mean (range), % of wild-type Claudin 6
[2] = target: T2, V152A; experiment: as above
[3] = target: T3, E154A; experiment: as above
[4] = target: T4, E48A; experiment: as above
[5] = target: T5, D76A; experiment: as above
[6] = target: T6, T33A; experiment: as above
[7] = target: T7, D146A; experiment: as above
[8] = target: T8, N38A; experiment: as above
[9] = target: T9, Claudin 3; experiment: flow cytometry, HEK-293T cells transiently transfected with the indicated claudin; pUC19 = empty vector control
Procedure: FIG. 2 illustrates the results of a binding assay showing that Claudin 6 MAbs bind to human Claudin 6 preferentially over other Claudin proteins. Human embryonic kidney 293T (HEK-293T) cells were transiently transfected with DNA for the indicated Claudin protein or empty vector along with GFP (pUC) for 22 hours.

| Binder | Binding Reactivity (% WT) [1] | Binding Reactivity (% WT) [2] | Binding Reactivity (% WT) [3] | Binding Reactivity (% WT) [4] | Binding Reactivity (% WT) [5] | Binding Reactivity (% WT) [6] | Binding Reactivity (% WT) [7] | Binding Reactivity (% WT) [8] | binding result [9] |
| --- | --- | --- | --- | --- | --- | --- | --- | --- | --- |
| B1 | 3.6 % WT | 58.2 % WT | 134 % WT | -0.5 % WT | 76.8 % WT | 116 % WT | 119 % WT | 86 % WT | no binding (tested: log [mAb] about -7.2 M) |
| B2 | 1.3 % WT | 129 % WT | 4 % WT | 0.9 % WT | 6 % WT | 22.8 % WT | 57.6 % WT | 22.4 % WT | no binding (tested: log [mAb] about -7.2 M) |
